{"source": "patent US20170275344A1", "about": "“POLYPEPTIDES AND USES THEREOF AS A DRUG FOR TREATMENT OF AUTOIMMUNE DISORDERS” (Compugen Ltd., priority 2014, published 2017)", "tested_on": "Female C57BL/6 recipient mice (CD45.2+)", "assay": "HY bone marrow transplantation model, male CD45.1 BM into female CD45.2 mice (FACS of blood and spleen)", "type": "in vivo, mouse", "text": "A transplantation model utilizing male bone marrow (BM) cells from C57BL/6 mice transplanted into female mice of the same starin was used to study whether C1ORF32 ECD-Fc induces immune tolerance. In this model BM cells of the male mouse are rejected by the female recipients due to mismatch in the minor histocompatibility antigen encoded by the Y chromosome (Hya). To allow identification of the male cells in the female mice blood, male mice expressing CD45.1 isotype were selected while the female mice carry CD45.2 isotype. This model provides a tool for testing the effect of potential drugs on induction of tolerance towards the grafted cells.\nIn this model, C1ORF32 ECD-Fc (SEQ ID NO:42) treatment started one week before bone marrow transplantation and continued for five weeks. Female recipient mice were followed for percentage of CD45.1+ and CD45.2+ cells present within the blood.\nFemale C57BL/6 recipient mice (CD45.2+) were sub-lethally irradiated with 200 rads/cGy 24 hours before transplantation of either female C57Bl/6 (CD45.1+) or male C57Bl/6 (CD45.1+) 5×10^6 bone marrow cells. Recipient mice were allocated into treatment groups as detailed below (n=6 per group). Treatments were given at 300 ug/dose i.p, 3×/wk starting one week prior to transplantation and continued for 4 weeks following transplantation, giving a total of 15 treatments during this 5 weeks period.\n1. Female CD45.1 into female CD45.2 2. Male CD45.1 into female CD45.2+anti-CD40L (300 ug/dose) (Clone MR-1; BioXCell, Cat#BE0017-1) 3. Male CD45.1 into female CD45.2+C1ORF ECD-Fc (SEQ ID NO:42) (300 ug/dose)2 4. Male CD45.1 into female CD45.2+Control Ig (mouse IgG2a) (300 ug/dose)\nBeginning at 2 weeks following bone marrow transplantation, blood samples from the tail were collected from each mouse once a week for 4 weeks. Approximately 2-3 drops of blood were collected per mouse into 200 ul of PBS+EDTA (50 mM), samples were spun down, and RBCs lysed with ammonium chloride. The cells were washed 3× with PBS, stained with the viability dye Aqua Dead Cell Stain (Invitrogen; Cat#L34957), blocked with Fc Receptor block (anti-mouse CD16/32; eBioscience; Cat#14-0161-86), and stained with anti-mouse CD45.1 APC-Cy7 (eBiosciences; Cat#47-0453-80) and anti-mouse CD45.2 FITC (eBioscience; Cat#11-0454-82). The analysis for chimerism was determined by flow cytometric analysis (on total live cells) for the percentage of CD45.1+ versus CD45.2+ cells present in the blood of female recipient mice.\nDuring weeks 6, 7, and 8 the blood samples were also stained to determine the percentage of CD4+ Teff cells and CD4+ Treg cells present within the blood using the cellular markers CD44, CD25, and FoxP3. Details of the Abs used in the flow panels for weeks 6, 7, and 8 are listed below.\nThese same populations of cells were analyzed at week 8 within the spleen. In addition, the proliferative and secreted cytokine responses of total splenocytes in ex vivo recall cultures were tested in the presence of medium alone, anti-CD3 (1 ug/ml), the HY antigen DBY peptide (NAGFNSNRANSSRSS; Genemed Synthesis; San Antonio, Tex.) (10 ug/ml), irradiated male splenocytes (1:1 ratio), or irradiated female splenocytes (1:1 ratio).", "key": {"[1]": {"conditions": "week 6 post transplant, vs Control Ig"}}}
{"molecule": "C1ORF32 ECD-Fc (SEQ ID NO:42): fusion protein of human C1ORF32 ECD fused to mouse immunoglobulin Fc (human-mouse fusion protein) (protein, Fusion protein human C1ORF32-ECD fused to mouse IgG2a Fc) LQVTVPDKKKVAMLFQPTVLRCHFSTSSHQPAVVQWKFKSYCQDRMGESLGMSSTRAQSLSKRNLEWDPYLDCLDSRRTVRVVASKQGSTVTLGDFYRGREITIVHDADLQIGKLMWGDSGLYYCIITTPDDLEGKNEDSVELLVLGRTGLLADLLPSFAVEIMGSENLYFQGSGEPRGPTIKPCPPCKCPAPNLLGGPSVFIFPPKIKDVLMISLSPIVTCVVVDVSEDDPDVQISWFVNNVEVHTAQTQTHREDYNSTLRVVSALPIQHQDWMSGKEFKCKVNNKDLPAPIERTISKPKGSVRAPQVYVLPPPEEEMTKKQVTLTCMVTDFMPEDIYVEWTNNGKTELNYKNTEPVLDSDGSYFMYSKLRVEKKNWVERNSYSCSVVHEGLHNHHTTKSFSRTPGK", "values": [{"measurement": "graft rejection", "setting": "5 week dosing schedule beginning one week before transplant", "result": "effective in preventing graft rejection"}, {"measurement": "male donor CD45.1+ cells present in the blood of recipient females", "setting": "week 4 post transplant, maintained until week 8, 300 ug/dose i.p. 3x/wk for 5 wks", "result": "highly significant number of male CD45.1+ cells were present"}, {"measurement": "effector/memory CD4+ T cells (CD45.1+/CD4+/CD44hi) within the blood", "setting": "[1]", "result": "decrease"}, {"measurement": "resting CD4+ T cells (CD45.1+/CD4+/CD44lo) in blood", "setting": "[1]", "result": "significantly higher percentage"}, {"measurement": "activated donor CD4+ T cells (CD45.1+/CD4+/CD25+/FoxP3-) in blood", "setting": "week 7 post transplant, vs Control Ig", "result": "significantly lower percentage"}, {"measurement": "number of donor-derived (CD45.1+) CD4+/CD25+/FoxP3+ Treg cells and Treg subpopulations in spleen", "setting": "week 8", "result": "striking increase"}, {"measurement": "donor (CD45.1+) Tregs (FoxP3+CD25+) in blood", "setting": "week 8, vs Control Ig", "result": "significant increase"}, {"measurement": "donor (CD45.1+) activated CD4+ T cells (FoxP3-CD25+) in blood", "setting": "week 8, vs Control Ig", "result": "decrease"}, {"measurement": "donor (CD45.1+) effector/memory CD4+ T cells (CD44hi) in blood", "setting": "week 8, vs Control Ig", "result": "significant increase"}, {"measurement": "number of endogenous-derived (CD45.2+) Tregs and Treg subtypes in spleen", "setting": "week 8, vs Ig control group", "result": "reduced"}, {"measurement": "percentage and number of CD45.1+/CD4+ T cells within the spleen", "setting": "week 8 post transplant", "result": "increased"}]}
